Results from paper doi:10.1101/2023.12.08.570772.
pKd: −log10 of the molar value. Blank lines part the entries; values can stand above or below the substance they belong to.

Tests used:
[1] = biological target: RAD18/RAD6 complex (full-length, purified) (human) (UniProt Q9NS91); assay: mass photometry
[2] = biological target: His-tagged full length (FL) wildtype (WT) RAD18 (human) (UniProt Q9NS91); assay: AUC
[3] = biological target: His-tagged full length (FL) wildtype (WT) RAD18 (human) (UniProt Q9NS91); assay: mass photometry
[4] = biological target: RAD6 WT (N-terminal histidine tag, purified alone) (human) (UniProt P63146); assay: ITC
Sequence of RAD6 WT (N-terminal histidine tag, purified alone) (human) (P63146 whole entry): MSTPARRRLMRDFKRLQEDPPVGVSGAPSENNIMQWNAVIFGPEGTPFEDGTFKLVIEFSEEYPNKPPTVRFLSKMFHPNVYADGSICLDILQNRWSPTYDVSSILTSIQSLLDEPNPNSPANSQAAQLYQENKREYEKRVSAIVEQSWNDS

Sequence of RAD6 of the purified RAD18/RAD6 complex (P63146 whole entry, one chain of several): as the sequence (P63146 whole entry) above
Sequence of His-tagged full length (FL) wildtype (WT) RAD18 (Q9NS91 whole entry): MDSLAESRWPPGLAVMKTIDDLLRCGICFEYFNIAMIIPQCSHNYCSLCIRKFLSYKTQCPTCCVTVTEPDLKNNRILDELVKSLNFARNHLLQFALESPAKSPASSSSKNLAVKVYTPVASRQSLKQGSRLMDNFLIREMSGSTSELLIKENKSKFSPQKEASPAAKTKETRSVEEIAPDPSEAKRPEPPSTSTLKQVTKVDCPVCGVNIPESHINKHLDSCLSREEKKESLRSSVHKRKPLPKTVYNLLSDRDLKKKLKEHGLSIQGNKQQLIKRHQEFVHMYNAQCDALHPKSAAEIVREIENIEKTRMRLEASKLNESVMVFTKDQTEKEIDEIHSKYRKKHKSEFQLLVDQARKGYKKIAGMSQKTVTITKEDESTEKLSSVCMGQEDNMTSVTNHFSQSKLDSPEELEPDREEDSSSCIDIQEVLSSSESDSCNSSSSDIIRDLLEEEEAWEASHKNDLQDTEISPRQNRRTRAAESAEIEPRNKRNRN
Sequence of His-tagged full length (FL) wildtype (WT) RAD18 (human) (Q9NS91 whole entry): as above
Sequence of Full length MAGEA4 WT (N-terminal histidine tag) (P43358 whole entry): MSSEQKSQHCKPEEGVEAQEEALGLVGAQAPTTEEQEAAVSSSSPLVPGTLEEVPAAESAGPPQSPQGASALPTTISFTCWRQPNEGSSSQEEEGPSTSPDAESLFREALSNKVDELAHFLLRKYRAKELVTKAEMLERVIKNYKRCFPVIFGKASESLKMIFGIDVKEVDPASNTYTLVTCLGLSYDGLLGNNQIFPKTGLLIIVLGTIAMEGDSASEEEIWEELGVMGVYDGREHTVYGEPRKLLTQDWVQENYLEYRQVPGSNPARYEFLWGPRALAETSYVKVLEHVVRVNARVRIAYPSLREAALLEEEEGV
Sequence of RAD18/RAD6 complex (full-length, purified) (human) (Q9NS91 whole entry, chain 1 of 2): as the sequence (Q9NS91 whole entry) above
Sequence of RAD18/RAD6 complex (full-length, purified) (human) (P63146 whole entry, chain 2 of 2, further chain): as the sequence (P63146 whole entry) above

Substance: Full length MAGEA4 WT (N-terminal histidine tag) (from UniProt P43358 1-317) (natural protein)
stoichiometry N [1]: 1

stoichiometry N [2]: 2 | stoichiometry N [3]: 2
Substance: His-tagged full length (FL) wildtype (WT) RAD18 (from UniProt Q9NS91 1-495) (enzyme)

Substance: RAD6 of the purified RAD18/RAD6 complex (from UniProt P63146 1-152) (enzyme)
stoichiometry N (RAD6 per RAD18) [2]: 0.5 | stoichiometry N (RAD6 per RAD18) [3]: 0.5

Substance: RAD18 R6BD peptide (27 amino acid peptide containing amino acids 340-366 of RAD18) (from UniProt Q9NS91 340-366)
pKd [4]: 4.60
